# Assay results as given in US20200262877A1, “ION CHANNEL-BINDING PEPTIDES AND METHODS OF USE THEREOF” (priority 2017, published 2020).
# Key:
# α4β2 = target: T1, α4β2 (Homo sapiens, UniProt P17787+P43681); test: Ion channel panel (IonWorks Barracuda): α4β2; type: cell-based; settings: 100% = no change, <100% = inhibition
# T1 construct: host or cells: HEK293 or CHO
# Method in brief: (§1)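 Peptides were tested in duplicate at final 20 μM and 200 nM, with concentration set by amino acid analysis, in HEPES-buffered saline. They were applied for at least 5 min to HEK293 or CHO cells transfected with each channel. Currents were expressed as % inhibition, 1-(Ipeptide/Icontrol)×100, or % activation, Ipeptide/Icontrol×100, against a channel-matched reference compound.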
# Kir2.1 = target: T2, Kir2.1 (Homo sapiens, UniProt P63252); test: Ion channel panel (IonWorks Barracuda): Kir2.1; type: cell-based; settings: 100% = no change, <100% = inhibition
# T2 construct: host or cells: HEK293 or CHO
# Method in brief: as §1
# Cav2.1 = target: T3, Cav2.1 (Homo sapiens, UniProt O00555); test: cell-based; settings: 100% = no change, <100% = inhibition
# T3 construct: host or cells: HEK293 or CHO
# Method in brief: as §1
# Kv2.1 = target: T4, Kv2.1 (Homo sapiens, UniProt Q14721); test: cell-based; settings: 100% = no change, <100% = inhibition
# T4 construct: host or cells: HEK293 or CHO
# Method in brief: as §1
# Cav2.2 = target: T5, Cav2.2 (Homo sapiens, UniProt Q00975); test: cell-based; settings: 100% = no change, <100% = inhibition
# T5 construct: host or cells: HEK293 or CHO
# Method in brief: as §1
# hERG = hERG (Homo sapiens, UniProt Q12809); test: in vitro; settings: 100% = no change, <100% = inhibition
# Method in brief: as §1
# Nav1.5 = Nav1.5 (Homo sapiens, UniProt Q14524); test: in vitro; settings: 100% = no change; for Activity of Nav1.5 with peptide, expressed as a percentage of the reference compound: peptide at 0.2 μM; for Activity of Nav1.5 with peptide (percentage of the reference compound): peptide at 20 μM
# Nav1.5, sequence (Q14524 whole entry): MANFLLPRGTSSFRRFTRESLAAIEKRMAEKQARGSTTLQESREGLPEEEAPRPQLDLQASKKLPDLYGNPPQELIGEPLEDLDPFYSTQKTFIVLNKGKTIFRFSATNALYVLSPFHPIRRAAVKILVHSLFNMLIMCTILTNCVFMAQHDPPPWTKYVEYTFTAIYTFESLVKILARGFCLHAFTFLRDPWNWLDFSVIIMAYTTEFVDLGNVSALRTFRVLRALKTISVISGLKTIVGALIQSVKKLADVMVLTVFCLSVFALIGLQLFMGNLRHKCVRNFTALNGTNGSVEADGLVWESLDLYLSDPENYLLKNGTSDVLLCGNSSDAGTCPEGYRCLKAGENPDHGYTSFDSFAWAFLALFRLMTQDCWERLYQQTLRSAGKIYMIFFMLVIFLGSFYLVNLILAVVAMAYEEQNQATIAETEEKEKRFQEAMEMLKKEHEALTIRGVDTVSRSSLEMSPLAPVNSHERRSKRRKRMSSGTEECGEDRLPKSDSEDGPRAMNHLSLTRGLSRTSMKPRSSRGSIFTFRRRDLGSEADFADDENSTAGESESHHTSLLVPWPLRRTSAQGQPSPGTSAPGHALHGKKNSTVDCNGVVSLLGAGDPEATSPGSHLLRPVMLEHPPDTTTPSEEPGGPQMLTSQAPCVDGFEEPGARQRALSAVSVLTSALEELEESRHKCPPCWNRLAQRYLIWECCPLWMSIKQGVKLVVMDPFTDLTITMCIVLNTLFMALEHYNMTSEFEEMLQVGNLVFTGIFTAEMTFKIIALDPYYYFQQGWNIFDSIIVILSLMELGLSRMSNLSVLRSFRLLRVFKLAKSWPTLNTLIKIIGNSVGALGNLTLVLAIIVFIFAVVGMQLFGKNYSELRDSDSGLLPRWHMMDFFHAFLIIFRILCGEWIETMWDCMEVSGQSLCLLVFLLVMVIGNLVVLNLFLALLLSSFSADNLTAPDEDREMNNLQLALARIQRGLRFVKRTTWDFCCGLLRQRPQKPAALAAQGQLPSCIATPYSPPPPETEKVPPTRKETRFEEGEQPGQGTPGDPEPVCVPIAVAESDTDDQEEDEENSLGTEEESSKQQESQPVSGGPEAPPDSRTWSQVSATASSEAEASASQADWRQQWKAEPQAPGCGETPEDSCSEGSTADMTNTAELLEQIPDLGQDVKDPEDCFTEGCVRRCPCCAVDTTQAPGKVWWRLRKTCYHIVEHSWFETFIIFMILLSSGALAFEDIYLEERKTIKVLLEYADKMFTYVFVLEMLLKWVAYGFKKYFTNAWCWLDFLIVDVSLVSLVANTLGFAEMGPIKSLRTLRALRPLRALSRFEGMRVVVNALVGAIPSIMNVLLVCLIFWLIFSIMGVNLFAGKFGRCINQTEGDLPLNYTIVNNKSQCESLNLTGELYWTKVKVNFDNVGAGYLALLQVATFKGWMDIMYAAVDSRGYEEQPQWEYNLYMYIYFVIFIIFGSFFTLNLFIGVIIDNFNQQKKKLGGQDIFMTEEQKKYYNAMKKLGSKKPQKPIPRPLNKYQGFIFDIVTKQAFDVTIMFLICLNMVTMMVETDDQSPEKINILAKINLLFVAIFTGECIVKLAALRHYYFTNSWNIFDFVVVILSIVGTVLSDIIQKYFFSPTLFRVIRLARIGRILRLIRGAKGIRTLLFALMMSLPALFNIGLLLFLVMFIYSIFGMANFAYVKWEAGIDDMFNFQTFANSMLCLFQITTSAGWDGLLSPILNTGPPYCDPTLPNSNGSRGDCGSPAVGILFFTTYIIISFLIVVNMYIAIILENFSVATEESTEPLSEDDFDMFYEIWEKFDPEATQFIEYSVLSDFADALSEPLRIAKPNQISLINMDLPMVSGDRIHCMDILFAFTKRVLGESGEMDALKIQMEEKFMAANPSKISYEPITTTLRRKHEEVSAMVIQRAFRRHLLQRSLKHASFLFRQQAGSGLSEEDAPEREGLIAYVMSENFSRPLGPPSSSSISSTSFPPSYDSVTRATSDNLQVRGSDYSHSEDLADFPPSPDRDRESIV
# Method in brief: as §1
# TRPV1 = target: T6, TRPV1 (Homo sapiens, UniProt Q8NER1); test: Ion channel panel (IonWorks Barracuda): TRPV1; type: cell-based; settings: 100% = no change, <100% = inhibition
# T6 construct: host or cells: HEK293 or CHO
# Method in brief: as §1
# NR2B = target: T7, NR2B (Homo sapiens, UniProt Q13224); test: Ion channel panel (IonWorks Barracuda): NR2B; type: cell-based; settings: 100% = no change, <100% = inhibition
# T7 construct: host or cells: HEK293 or CHO
# Method in brief: as §1
# Nav1.7 = target: T8, Nav1.7 (Homo sapiens, UniProt Q15858); test: cell-based; type: cell-based; settings: 100% = no change; for Activity of Nav1.7 with peptide, expressed as a percentage of the reference compound: peptide at 0.2 μM; for Activity of Nav1.7 with peptide (percentage of the reference compound): peptide at 20 μM
# T8 construct: host or cells: HEK293 or CHO
# T8 sequence (Q15858 whole entry): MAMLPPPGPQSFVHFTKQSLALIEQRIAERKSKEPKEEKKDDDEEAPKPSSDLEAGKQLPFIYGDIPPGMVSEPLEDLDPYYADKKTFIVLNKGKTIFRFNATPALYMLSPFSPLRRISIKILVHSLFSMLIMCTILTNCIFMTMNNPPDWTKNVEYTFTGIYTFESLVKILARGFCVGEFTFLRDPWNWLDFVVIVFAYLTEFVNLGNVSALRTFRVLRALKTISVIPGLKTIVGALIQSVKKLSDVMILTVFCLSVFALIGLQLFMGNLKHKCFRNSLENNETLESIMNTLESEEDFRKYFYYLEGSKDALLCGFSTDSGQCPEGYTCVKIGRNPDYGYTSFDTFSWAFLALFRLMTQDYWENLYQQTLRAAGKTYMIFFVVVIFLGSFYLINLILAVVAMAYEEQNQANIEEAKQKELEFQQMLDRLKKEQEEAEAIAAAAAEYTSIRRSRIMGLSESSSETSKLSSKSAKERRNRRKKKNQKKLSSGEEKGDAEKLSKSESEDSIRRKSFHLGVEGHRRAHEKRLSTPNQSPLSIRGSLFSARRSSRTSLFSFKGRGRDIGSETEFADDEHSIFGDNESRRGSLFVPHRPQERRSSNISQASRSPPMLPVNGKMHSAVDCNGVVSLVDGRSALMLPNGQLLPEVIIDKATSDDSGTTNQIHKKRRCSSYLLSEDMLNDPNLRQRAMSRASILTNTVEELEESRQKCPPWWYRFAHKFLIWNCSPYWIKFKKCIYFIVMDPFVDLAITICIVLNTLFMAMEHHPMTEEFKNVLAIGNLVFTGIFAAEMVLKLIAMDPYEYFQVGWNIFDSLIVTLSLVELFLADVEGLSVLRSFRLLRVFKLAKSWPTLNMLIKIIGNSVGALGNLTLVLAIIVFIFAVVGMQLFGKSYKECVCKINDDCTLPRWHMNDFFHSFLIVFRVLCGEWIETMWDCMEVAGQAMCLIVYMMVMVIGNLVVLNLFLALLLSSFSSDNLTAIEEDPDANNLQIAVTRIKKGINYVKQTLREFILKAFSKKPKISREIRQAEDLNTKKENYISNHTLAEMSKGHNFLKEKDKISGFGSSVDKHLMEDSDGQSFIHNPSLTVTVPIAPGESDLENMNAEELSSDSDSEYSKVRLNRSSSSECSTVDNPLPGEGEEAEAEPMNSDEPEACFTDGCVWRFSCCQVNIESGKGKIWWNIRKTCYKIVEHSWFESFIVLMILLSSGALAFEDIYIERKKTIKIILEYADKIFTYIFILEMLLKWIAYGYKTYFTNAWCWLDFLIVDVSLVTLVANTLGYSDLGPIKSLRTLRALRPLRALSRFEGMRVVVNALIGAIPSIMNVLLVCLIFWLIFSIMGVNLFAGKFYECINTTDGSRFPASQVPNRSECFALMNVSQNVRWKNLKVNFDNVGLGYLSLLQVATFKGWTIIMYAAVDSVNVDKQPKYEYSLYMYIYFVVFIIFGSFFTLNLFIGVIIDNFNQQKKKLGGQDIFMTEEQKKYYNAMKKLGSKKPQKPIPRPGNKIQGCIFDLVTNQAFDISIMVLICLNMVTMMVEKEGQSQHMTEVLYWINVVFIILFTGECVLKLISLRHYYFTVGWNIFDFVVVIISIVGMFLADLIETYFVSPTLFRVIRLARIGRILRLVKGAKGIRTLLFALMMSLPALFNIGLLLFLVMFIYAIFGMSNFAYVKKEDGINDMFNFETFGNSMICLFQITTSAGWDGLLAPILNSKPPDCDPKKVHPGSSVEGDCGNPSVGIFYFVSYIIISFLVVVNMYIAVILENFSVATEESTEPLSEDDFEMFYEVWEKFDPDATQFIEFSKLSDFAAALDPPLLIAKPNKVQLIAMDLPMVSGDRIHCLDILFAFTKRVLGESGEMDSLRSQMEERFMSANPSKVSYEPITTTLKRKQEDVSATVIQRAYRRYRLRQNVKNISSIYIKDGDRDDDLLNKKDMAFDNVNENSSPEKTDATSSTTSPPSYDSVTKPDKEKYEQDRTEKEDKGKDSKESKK
# α3β4 = target: T9, α3β4 (Homo sapiens, UniProt P30926+P32297); test: Ion channel panel (IonWorks Barracuda): α3β4; type: cell-based; settings: 100% = no change, <100% = inhibition
# T9 construct: host or cells: HEK293 or CHO
# T9 sequence (P30926 22-498): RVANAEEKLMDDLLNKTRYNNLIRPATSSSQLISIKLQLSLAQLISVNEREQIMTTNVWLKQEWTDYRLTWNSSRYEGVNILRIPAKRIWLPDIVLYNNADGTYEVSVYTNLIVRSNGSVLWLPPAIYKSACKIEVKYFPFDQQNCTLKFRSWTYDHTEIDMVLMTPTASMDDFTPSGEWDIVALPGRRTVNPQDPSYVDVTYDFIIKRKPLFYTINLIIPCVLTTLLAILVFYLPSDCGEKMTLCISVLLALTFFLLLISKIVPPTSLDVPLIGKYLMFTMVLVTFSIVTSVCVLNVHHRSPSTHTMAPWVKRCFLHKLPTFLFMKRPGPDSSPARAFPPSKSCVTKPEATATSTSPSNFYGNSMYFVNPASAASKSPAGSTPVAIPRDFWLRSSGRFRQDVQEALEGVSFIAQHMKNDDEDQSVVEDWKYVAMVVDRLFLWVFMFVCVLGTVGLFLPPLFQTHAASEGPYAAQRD
# T9 sequence (P32297 32-505): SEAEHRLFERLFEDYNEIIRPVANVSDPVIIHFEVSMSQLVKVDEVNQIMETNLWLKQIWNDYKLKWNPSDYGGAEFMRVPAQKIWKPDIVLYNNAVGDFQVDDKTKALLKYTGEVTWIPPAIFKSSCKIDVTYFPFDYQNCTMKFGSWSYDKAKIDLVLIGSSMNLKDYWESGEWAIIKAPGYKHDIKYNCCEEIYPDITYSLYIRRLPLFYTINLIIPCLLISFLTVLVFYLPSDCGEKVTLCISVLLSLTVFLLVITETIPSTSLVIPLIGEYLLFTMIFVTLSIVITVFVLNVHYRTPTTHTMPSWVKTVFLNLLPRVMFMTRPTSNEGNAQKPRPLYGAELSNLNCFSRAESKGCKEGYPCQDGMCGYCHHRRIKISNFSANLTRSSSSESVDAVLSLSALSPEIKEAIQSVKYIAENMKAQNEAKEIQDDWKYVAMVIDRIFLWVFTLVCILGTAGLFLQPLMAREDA
# Method in brief: as §1
# Kv1.1 = target: T10, Kv1.1 (Homo sapiens, UniProt Q09470); test: cell-based; type: cell-based; settings: 100% = no change, <100% = inhibition
# T10 construct: host or cells: HEK293 or CHO
# Method in brief: as §1
# Kv1.3 = target: T11, Kv1.3 (Homo sapiens, UniProt P22001); test: cell-based; type: cell-based; settings: 100% = no change, <100% = inhibition
# T11 construct: host or cells: HEK293 or CHO
# Method in brief: as §1
# Kv1.2 = target: T12, Kv1.2 (Homo sapiens, UniProt P16389); test: cell-based; type: cell-based; settings: 100% = no change, <100% = inhibition
# T12 construct: host or cells: HEK293 or CHO
# Method in brief: as §1
# TRPA1 = target: T13, TRPA1 (Homo sapiens, UniProt O75762); test: Ion channel panel (IonWorks Barracuda): TRPA1; type: cell-based; settings: 100% = no change, <100% = inhibition
# T13 construct: host or cells: HEK293 or CHO
# Method in brief: as §1
# GABA = test: Ion channel panel (IonWorks Barracuda): GABA; type: cell-based; settings: 100% = no change, <100% = inhibition
# Method in brief: as §1
# 5HT3a = target: T14, 5HT3a (Homo sapiens, UniProt P46098); test: Ion channel panel (IonWorks Barracuda): 5HT3a; type: cell-based
# T14 construct: host or cells: HEK293 or CHO
# T14 sequence (P46098 whole entry, looked up): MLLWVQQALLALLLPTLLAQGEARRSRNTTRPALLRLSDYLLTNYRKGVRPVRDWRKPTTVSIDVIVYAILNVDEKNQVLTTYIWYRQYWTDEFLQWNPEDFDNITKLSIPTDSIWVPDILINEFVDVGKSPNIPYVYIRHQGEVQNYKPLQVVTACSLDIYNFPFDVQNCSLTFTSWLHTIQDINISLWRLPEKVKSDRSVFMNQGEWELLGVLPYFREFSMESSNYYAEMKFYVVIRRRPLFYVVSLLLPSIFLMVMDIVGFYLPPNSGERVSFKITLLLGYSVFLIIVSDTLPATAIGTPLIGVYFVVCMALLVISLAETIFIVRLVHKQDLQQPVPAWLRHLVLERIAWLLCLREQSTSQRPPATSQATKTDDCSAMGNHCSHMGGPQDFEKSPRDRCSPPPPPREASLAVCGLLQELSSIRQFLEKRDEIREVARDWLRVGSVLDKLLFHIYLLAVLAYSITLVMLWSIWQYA
# Method in brief: as §1
# NR2A = target: T15, NR2A (Homo sapiens, UniProt Q12879); test: Ion channel panel (IonWorks Barracuda): NR2A; type: cell-based; settings: 100% = no change, <100% = inhibition
# T15 construct: host or cells: HEK293 or CHO
# Method in brief: as §1
# [1] = first of two Nav1.5 columns (probably TP1)
# [2] = second of two Nav1.5 columns (probably TP2)
# [3] = first of two Nav1.7 columns (probably TP1)
# [4] = second of two Nav1.7 columns (probably TP2)
substance,measurement,setting,value
19 (GSQFTDVKCTGSKQCWPVCKQMFGKPNGKCMNGKCRCYS) [compound 19],"Activity of a4b2 with peptide, expressed as a percentage of the reference compound",α4β2; peptide at 0.2 μM,99%
same,Activity of a4b2 with peptide (percentage of the reference compound),α4β2; peptide at 20 μM,93%
same,"Activity of Kir2.1 with peptide, expressed as a percentage of the reference compound",Kir2.1; peptide at 0.2 μM,107%
same,Activity of Kir2.1 with peptide (percentage of the reference compound),Kir2.1; peptide at 20 μM,93%
same,"Activity of Cav2.1 with peptide, expressed as a percentage of the reference compound",Cav2.1; peptide at 0.2 μM,106%
same,Activity of Cav2.1 with peptide (percentage of the reference compound),Cav2.1; peptide at 20 μM,109%
same,"Activity of Kv2.1 with peptide, expressed as a percentage of the reference compound",Kv2.1; peptide at 0.2 μM,95%
same,Activity of Kv2.1 with peptide (percentage of the reference compound),Kv2.1; peptide at 20 μM,108%
same,"Activity of Cav2.2 with peptide, expressed as a percentage of the reference compound",Cav2.2; peptide at 0.2 μM,116%
same,Activity of Cav2.2 with peptide (percentage of the reference compound),Cav2.2; peptide at 20 μM,94%
same,"Activity of hERG with peptide, expressed as a percentage of the reference compound",hERG; peptide at 0.2 μM,98%
same,Activity of hERG with peptide (percentage of the reference compound),hERG; peptide at 20 μM,86%
same,"Activity of Nav1.5 with peptide, expressed as a percentage of the reference compound",Nav1.5; [1],112%
same,"Activity of Nav1.5 with peptide, expressed as a percentage of the reference compound",Nav1.5; [2],114%
same,Activity of Nav1.5 with peptide (percentage of the reference compound),Nav1.5; [1],117%
same,Activity of Nav1.5 with peptide (percentage of the reference compound),Nav1.5; [2],117%
same,"Activity of TRPV1 with peptide, expressed as a percentage of the reference compound",TRPV1; peptide at 0.2 μM,94%
same,Activity of TRPV1 with peptide (percentage of the reference compound),TRPV1; peptide at 20 μM,90%
same,"Activity of NR2B with peptide, expressed as a percentage of the reference compound",NR2B; peptide at 0.2 μM,117%
same,Activity of NR2B with peptide (percentage of the reference compound),NR2B; peptide at 20 μM,130%
same,"Activity of Nav1.7 with peptide, expressed as a percentage of the reference compound",Nav1.7; [3],91%
same,"Activity of Nav1.7 with peptide, expressed as a percentage of the reference compound",Nav1.7; [4],92%
same,Activity of Nav1.7 with peptide (percentage of the reference compound),Nav1.7; [3],121%
same,Activity of Nav1.7 with peptide (percentage of the reference compound),Nav1.7; [4],140%
same,"Activity of a3b4 with peptide, expressed as a percentage of the reference compound",α3β4; peptide at 0.2 μM,101%
same,Activity of a3b4 with peptide (percentage of the reference compound),α3β4; peptide at 20 μM,97%
same,"Activity of Kv1.1 with peptide, expressed as a percentage of the reference compound",Kv1.1; peptide at 0.2 μM,100%
same,Activity of Kv1.1 with peptide (percentage of the reference compound),Kv1.1; peptide at 20 μM,44%
same,"Activity of Kv1.3 with peptide, expressed as a percentage of the reference compound",Kv1.3; peptide at 0.2 μM,4%
same,Activity of Kv1.3 with peptide (percentage of the reference compound),Kv1.3; peptide at 20 μM,−1%
same,"Activity of Kv1.2 with peptide, expressed as a percentage of the reference compound",Kv1.2; peptide at 0.2 μM,41%
same,Activity of Kv1.2 with peptide (percentage of the reference compound),Kv1.2; peptide at 20 μM,37%
same,"Activity of TRPA1 with peptide, expressed as a percentage of the reference compound",TRPA1; peptide at 0.2 μM,126%
same,Activity of TRPA1 with peptide (percentage of the reference compound),TRPA1; peptide at 20 μM,109%
same,"Activity of GABA with peptide, expressed as a percentage of the reference compound",GABA; peptide at 0.2 μM,93%
same,Activity of GABA with peptide (percentage of the reference compound),GABA; peptide at 20 μM,111%
same,Activity of 5HT3a with peptide (percentage of the reference compound),5HT3a,69%
same,"Activity of 5HT3a with peptide, expressed as a percentage of the reference compound",5HT3a,89%
same,"Activity of NR2A with peptide, expressed as a percentage of the reference compound",NR2A; peptide at 0.2 μM,90%
same,Activity of NR2A with peptide (percentage of the reference compound),NR2A; peptide at 20 μM,99%
